Data taken from patent US20230365679A1 (KUNMING SINOWAY NATURAL PHARMACEUTICALS, published 2023).
Changes are numbered by the printed parent chain.

B1: mAb-6 (antibody, human IgG1, kappa, V domains shown)
VH: EVQLVESGGGLVKPGGSLRLSCAASGFAFSIYDMSWIRQAPGKCLEWVAYISSGGGTTYYPGSVKGRFTISRENAKNSLYLQMNSLRAGDTAVYYCARHSGYGTHWGVLFAYWGQGTMVTVSS
VL: DIQMTQSPSTLSASVGDRVTITCRASQDISNYLNWFQQRPGQSPRLLIYYTSILHSGVPSRFSGSGSGTDYTLTISSLQPEDFATYYCQQGNTLPWTFGCGTKVEIKR
notes: Humanized IgG1/kappa antibody; also called V4 HC + V4 LC
B2: HA22 mAb (antibody, human IgG1, kappa, V domains shown)
VH: EVQLVESGGGLVKPGGSLKLSCAASGFAFSIYDMSWVRQTPEKCLEWVAYISSGGGTTYYPDTVKGRFTISRDNAKNTLYLQMSSLKSEDTAMYYCARHSGYGTHWGVLFAYWGQGTLVTVSA
VL: DIQMTQTTSSLSASLGDRVTISCRASQDISNYLNWYQQKPDGTVKLLIYYTSILHSGVPSRFSGSGSGTDYSLTISNLEQEDFATYFCQQGNTLPWTFGCGTKLEIKR
notes: also called positive antibody HA22 mAb
B3: mAb-1 (antibody, human IgG1, kappa, V domains shown)
VH: B2 VH with K19R, T63S, D73E, T78S, S84N, L118M, A123S
VL: B2 VL
notes: Reconstructed IgG1/kappa antibody, humanized heavy chain with HA22 light chain; also called V2 HC + HA22 LC
B4: mAb-3 (antibody, human IgG1, kappa, V domains shown)
VH: B1 VH with I37V, G62D, R87K, A88S, G89E, V93M
VL: B1 VL with P8T, F36Y, G41D, Q42G, P44V, R45K, P80D, Y87F
notes: Humanized IgG1/kappa antibody; also called V1 HC + V2 LC
B5: mAb-2 (antibody, human IgG1, kappa, V domains shown)
VH: B2 VH with K19R, T63S, D73E, T78S, S84N, L118M, A123S
VL: B1 VL with P8T, F36Y, G41D, Q42G, P44V, R45K, P80D, Y87F
notes: Humanized IgG1/kappa antibody; also called V2 HC + V2 LC
B6: mAb-5 (antibody, human IgG1, kappa, V domains shown)
VH: B1 VH with A88S, G89E
VL: B1 VL
notes: Humanized IgG1/kappa antibody; also called V5 HC + V4 LC
B7: mAb-4 (antibody, human IgG1, kappa, V domains shown)
VH: B1 VH with I37V, G62D, R87K, A88S, G89E, V93M
VL: B1 VL
notes: Humanized IgG1/kappa antibody; also called V1 HC + V4 LC

Assays:
[1] = biological target: CD22 on the cell membrane of CD22-positive cell lines (Raji, REH, CA46) (UniProt P20273); assay: FACS on CA46 cells; ambiguous fit, Top printed as (very wide)
[2] = biological target: Biotinylated Human Siglec-2/CD22 Protein, Fc, Avitag (ACROBiosystems, SI2-H82F8) (human) (UniProt P20273); assay: ELISA, plate coated with CD22-Fc antigen; fit of a non-binding control (R2 0.1733), not meaningful
[3] = biological target: CD22 on the cell membrane of CD22-positive cell lines (Raji, REH, CA46) (UniProt P20273); assay: FACS on REH cells; ambiguous fit, Top printed as (very wide)
[4] = biological target: CD22 on the cell membrane of CD22-positive cell lines (Raji, REH, CA46) (UniProt P20273); assay: FACS on Raji cells
[5] = biological target: T1, CD22 on the cell membrane of CD22-positive cell lines (Raji, REH, CA46) (UniProt P20273 20-847, limits assumed); assay: FACS on CA46 cells
T1 construct: whole, on cells; Raji and CA46: relatively high expression of CD22; REH: relatively medium expression; also called CD22 on cell membrane
Procedure: (§1) Raji cells (having a relatively high expression of CD22), CA46 cells (having a relatively high expression of CD22), and REH cells (having a relatively medium expression of CD22) were selected, and the cell binding ability of the antibodies was evaluated by curves of mean fluorescence intensity versus concentration obtained through FACS.

[6] = biological target: T2, Biotinylated Human Siglec-2/CD22 Protein, Fc, Avitag (ACROBiosystems, SI2-H82F8) (human, UniProt P20273 20-687, biotinylated (Avitag)); assay: ELISA, plate coated with CD22-Fc antigen, anti-human Fd-HRP
T2 construct: Bought reagent; also called CD22 antigen; CD22-Fc-biotinylated antigen; not shown: Fc tag of the bought protein; Avitag
Procedure: ELISA plates were coated with 200 ng/mL CD22 antigen (Biotinylated Human Siglec-2/CD22 Protein, Fc, Avitag™, ACROBiosystems (ARCO)) at 100 μl per well, at 4° C. overnight. Next day, the plates were washed with PBST, then blocked by the added blocking buffer (PBST+3% milk) at 37° C. for 1-2 hours, and then washed again with PBST.
After incubation, the plates were washed with PBST. 100 μl of 1:10000 diluted secondary antibody (Mouse anti-human IgG Fd secondary antibody, HRP; REF: SA5-10190, Invitrogen, USA) was added to each well of the ELISA plates which were then incubated at 37° C. for 1 hour. Thereafter, the plates were washed with PBST.
100 μl of TMB solution (TMB Single-Component Substrate solution, Cat #PR1200, Beijing Solarbio Science & Technology Co., Ltd.) was added to each well of the plates which were then incubated at room temperature for 15 minutes. Then 50 μl of stop buffer (ELISA stop buffer (10×), Cat #C1058, Beijing Solarbio Science & Technology Co., Ltd.) was added thereto, and the plates were shaken. Absorbance values at 450 nm were detected.

[7] = biological target: T2, Biotinylated Human Siglec-2/CD22 …; assay: SPR (Biacore 8K), CD22-Fc-biotin on SA chip, antibody as analyte, 1:1 binding model
Procedure: Following reagents and materials were mainly used: [0066] Antigen to be immobilized: CD22-Fc-biotinylated antigen: ACROBiosystems (ARCO)) SI2-H82F8; [0067] Antibodies to be tested: Anti-CD22 mAbs; [0068] Chip SA; [0069] Immobilization buffer: (1) 1 M NaCl/50 mM NaOH; [0070] (2) 1 M NaCl/50 mM NaOH/50% isopropanol; [0071] Running buffer: 1×HBS-EP buffer; [0072] Regeneration buffer: Glycine, pH 1.5.
Experimental steps were as follows: [0074] 1) A sensor chip SA was taken and its surface was cleaned with ultrapure water; and after dried under nitrogen, was inserted into the slot. The immobilization buffers (1) and (2) were added to the columns A1 and A2 in a 96 well plate, and 3.85 nM CD22-Fc-biotinylated antigen were added at 200 μL per well into corresponding wells in column A3, respectively. The program was set to immobilize the antigen, and the immobilization was stopped when delta RU of about 70 RU was achieved. [0075] 2) Program “binding test” was set, including association time of 250 s and dissociation time of 600 s, and a test was performed using HA22 mAb, a dissociation degree of 4-5% was shown. [0076] 3) The HA22 mAb was diluted to 1000 nM and subsequently to 100 nM, and further 2-fold diluted starting from 100 nM for 8 times, at a final volume of about 250 μL per well. The program was set up to detect the binding capacity of that antibody No. 1 to the antigen, with association time of 250 s and dissociation time of 600 s. […] [0077] 4) All the antibodies, i.e., mAb-1 to mAb-6, were diluted to 1000 nM and subsequently to 100 nM, and further 2-fold diluted starting from 100 nM for 8 times, at a final volume of about 250 μL per well. The same program as that in step 3 was set up to detect affinity in batches. Results were analyzed using Biacore 8K evaluation.

[8] = biological target: T1, CD22 on the cell membrane of …; assay: FACS on REH cells
Procedure: as §1

[9] = biological target: T1, CD22 on the cell membrane of …; assay: FACS on Raji cells
Procedure: as §1

[10] = biological target: T1, CD22 on the cell membrane of …; assay: FACS on CA46 cells; ambiguous fit, Top printed as (very wide)
Procedure: as §1

Row | Molecule | EC50 [1] [µg/mL] | EC50 [2] [µg/mL] | EC50 [3] [µg/mL] | EC50 [4] [µg/mL] | EC50 [5] [µg/mL] | EC50 [6] [µg/mL] | Kd [7] [nM] | koff [7] [s⁻¹] | kon [7] [M⁻¹ s⁻¹] | EC50 [8] [µg/mL] | EC50 [9] [µg/mL] | EC50 [10] [µg/mL]
1 | Isotype control (antibody) | 4590 | 0.000154 | 8250 | 32.6 | – | – | – | – | – | – | – | –
2 | B1 | – | – | – | – | 2.75 | 0.0104 | 0.315 | 0.00022 | 699000 | – | – | –
3 | B2 | – | – | – | – | 0.221 | 0.0203 | 0.242 | 8.93e-05 | 370000 | 0.172 | 0.152 | –
4 | B3 | – | – | – | – | 0.521 | 0.0154 | 0.604 | 0.000262 | 434000 | 0.812 | 0.152 | –
5 | B4 | – | – | – | – | 1.61 | 0.0139 | 0.713 | 0.000404 | 567000 | – | – | –
6 | B5 | – | – | – | – | 0.23 | 0.00906 | 0.47 | 0.000177 | 376000 | – | 0.276 | –
7 | B6 | – | – | – | – | – | 0.0163 | 0.382 | 0.000411 | 1.08e+06 | – | – | ~20200
8 | B7 | – | – | – | – | 0.152 | 0.0139 | 0.145 | 9.91e-05 | 685000 | – | 0.206 | –
